Measured values published in article PMC5753033.

How the values were obtained:
[1] = target: Alexa488-labeled WAVE1 PWCA (FRET donor construct) (human) (UniProt Q92558); test: FRET or BRET; competition: 7.5 nM Alexa488-WAVE1 variant premixed with 175 nM LatB-stabilized Atto540Q-actin, profilin titrated; room temperature; 20 mM HEPES pH 7.0, 100 mM KCl
[2] = target: Alexa488-labeled WAVE1 PWCA (FRET donor construct) (human) (UniProt Q92558); test: FRET or BRET; 7.5 nM Alexa488-labeled WAVE1 variant titrated with LatB-stabilized Atto540Q-actin; donor quenching; room temperature; 20 mM HEPES pH 7.0, 100 mM KCl, 1.5 mM MgCl2, 1 mM EGTA, 1 mM ATP; single site binding curve
[3] = target: Alexa488-labeled WAVE1 WCA (human); test: as above
WAVE1 PRD[A] (human) = WAVE1 PRD[A] (human) (UniProt Q92558); test: AUC; sedimentation equilibrium; dye-labeled WAVE1 PRD variant with an excess of profilin (for PRD[B] 91.2, 44.8 and 21.7 μM); three speeds; 20°C; 25 mM HEPES pH 7.0, 50 mM KCl, 1 mM MgCl2, 1 mM EGTA, 0.5 mM TCEP; two-site independent model with one site fixed to the non-specific affinity
WAVE1 PRD[B] (human) = WAVE1 PRD[B] (human) (UniProt Q92558); test: as above
WAVE1 PRD[C] (human) = WAVE1 PRD[C] (human) (UniProt Q92558); test: as above
WAVE1 PRD[D] (human) = WAVE1 PRD[D] (human) (UniProt Q92558); test: as above
WAVE1 PRD[E] (human) = WAVE1 PRD[E] (human) (UniProt Q92558); test: as above
WAVE1 PRD[F] (human) = WAVE1 PRD[F] (human) (UniProt Q92558); test: as above

Row | Substance | fraction of WH2 domains that contact actin at high profilin [1] [%] | residual fluorescence quenching at the highest profilin concentrations [1] [%] | Kd [2] [nM] | Kd [3] [nM] | Kd (WAVE1 PRD[A] (human)) [µM] | Kd (WAVE1 PRD[B] (human)) [nM] | Kd (WAVE1 PRD[C] (human)) [µM] | Kd (WAVE1 PRD[D] (human)) [µM] | Kd (WAVE1 PRD[E] (human)) [µM] | Kd (WAVE1 PRD[F] (human)) [µM]
1 | Atto540Q-labeled actin monomers (Acanthamoeba castellanii), Latrunculin B-stabilized (natural protein) | > 35 | > 30 | 21 | 61 | – | – | – | – | – | –
2 | Human profilin 1 (from UniProt P07737 1-140) (natural protein) | – | – | – | – | > 10 | 2000 | > 10 | > 10 | > 10 | 4
